In this assay the target is Recombinant Human CTLA4-Fc chimera (R&D systems) (human) (UniProt P16410). Put plainly: ELISA, signal over SA. In general terms: In an ELISA, binding on a coated surface is turned into a signal by an enzyme label.
On to GGCVHPSLPILSVHFCPR (peptide, not shown: large carriers; small tags and cut ends) [C4m#19-5th4w-NN6-55-4], for which the ELISA S/N(SA) amounted to 29.5.

Regarding GGCWHPWLPILSPHFCPR (peptide, not shown: large carriers; small tags and cut ends) [C4m#19-5th4w-NN6-21], the ELISA S/N(SA) came to 37.5.

For the molecule GGCRHPYLPIWSIHFCQK (peptide, not shown: large carriers; small tags and cut ends) [C4m#19-5th4w-NN6-19], the ELISA S/N(SA) was determined as 29.7.

Turning to GGCWHPFLPIRSSHFCPS (peptide, not shown: large carriers; small tags and cut ends) [C4m#19-5th2w-NNS6-21], the ELISA S/N(SA) is 31.1.

Regarding GGCFHPYLPIRSWHFCGR (peptide, not shown: large carriers; small tags and cut ends) [C4m#19-5th4w-NN6-9], the ELISA S/N(SA) was 28.8.

GGCCHPWLPIVSTHFCGL (peptide, not shown: large carriers; small tags and cut ends) [C4m#19-5th4w-NN6-93]: the ELISA S/N(SA) is 28.9.

For GGCPHPWLPIFSRHFCPV (peptide, not shown: large carriers; small tags and cut ends) [C4m#19-5th4w-NN6-47], the ELISA S/N(SA) turned out to be 34.2.

Consider GGCWHPFLPIRSYHFCPW (peptide, not shown: large carriers; small tags and cut ends) [C4m#19-5th2w-NNS6-14], for which the ELISA S/N(SA) is 34.7.

As for GGCLHPFLPIRSVHFCPR (peptide, not shown: large carriers; small tags and cut ends) [C4m#19-5th4w-NN6-67], the ELISA S/N(SA) came to 45.4.

Take GGCRHPHLPIWSWHFCGR (peptide, not shown: large carriers; small tags and cut ends) [C4m#19-5th4w-NN6-23]: the ELISA S/N(SA) amounted to 30.2.

In the case of GGCRHPFLPIYSVHFCAC (peptide, not shown: large carriers; small tags and cut ends) [C4m#19-5th4w-NN6-53], the ELISA S/N(SA) was found to be 32.2.

With GGCFHPYLPIRSWHFCSR (peptide, not shown: large carriers; small tags and cut ends) [C4m#19-5th4w-NN6-81], the ELISA S/N(SA) was 32.3.

With GGCRHPFLPIVSTHFCSR (peptide, not shown: large carriers; small tags and cut ends) [C4m#19-5th4w-NN6-77], the ELISA S/N(SA) came out at 30.5.

With GGCLHPVLPIRSRHFCPV (peptide, not shown: large carriers; small tags and cut ends) [C4m#19-5th4w-NN6-25], the ELISA S/N(SA) worked out at 38.9.

Consider GGCVHPFLPIRSVHFCAL (peptide, not shown: large carriers; small tags and cut ends) [C4m#19-5th4w-NN6-92-1], for which the ELISA S/N(SA) is 30.

Turning to GGCMHPFLPIRSMHFCPL (peptide, not shown: large carriers; small tags and cut ends) [C4m#19-5th4w-NN6-70], the ELISA S/N(SA) was 35.5.

Turning to GGCFHPFLPIRSDHFCSR (peptide, not shown: large carriers; small tags and cut ends) [C4m#19-5th4w-NN6-34], the ELISA S/N(SA) was found to be 32.2.

For the molecule GGCWHPFLPIRSLHFCPR (peptide, not shown: large carriers; small tags and cut ends) [C4m#19-5th4w-NN6-39], the ELISA S/N(SA) is 35.6.

Regarding GGCSHPQLPILSDHFCSA (peptide, not shown: large carriers; small tags and cut ends) [C4m#19-5th4w-NN6-20], the ELISA S/N(SA) came to 30.6.

On to GGCWHPFLPISSPHFCGR (peptide, not shown: large carriers; small tags and cut ends) [C4m#19-5th4w-NN6-65-1], for which the ELISA S/N(SA) is 29.5.

In the case of GGCLHPFLPIRSVHFCPF (peptide, not shown: large carriers; small tags and cut ends) [C4m#19-5th4w-NN6-15], the ELISA S/N(SA) stood at 39.9.

In the case of GGCRHPYLPIVSRHFCPF (peptide, not shown: large carriers; small tags and cut ends) [C4m#19-5th4w-NN6-4], the ELISA S/N(SA) came to 31.6.

With GGCLHPGLPIRSLHFCPR (peptide, not shown: large carriers; small tags and cut ends) [C4m#19-5th4w-NN6-54], the ELISA S/N(SA) was found to be 33.3.

As for GGCMHPFLPIQSVHFCSR (peptide, not shown: large carriers; small tags and cut ends) [C4m#19-5th2w-NNS6-22], the ELISA S/N(SA) came out at 29.3.

With GGCRHPFLPIVSWHFCGR (peptide, not shown: large carriers; small tags and cut ends) [C4m#19-5th4w-NN6-44], the ELISA S/N(SA) turned out to be 30.1.

The values above are taken from US20240092836A1.
